Like-named read-outs stand apart in the source and are kept apart here.

Seven molecules from PMC10841737 (Biochemistry, 2023) can be followed below.

For series [1], the target named is T1, Cdc13 (Saccharomyces cerevisiae, UniProt P32797 1-924).
T1 sequence: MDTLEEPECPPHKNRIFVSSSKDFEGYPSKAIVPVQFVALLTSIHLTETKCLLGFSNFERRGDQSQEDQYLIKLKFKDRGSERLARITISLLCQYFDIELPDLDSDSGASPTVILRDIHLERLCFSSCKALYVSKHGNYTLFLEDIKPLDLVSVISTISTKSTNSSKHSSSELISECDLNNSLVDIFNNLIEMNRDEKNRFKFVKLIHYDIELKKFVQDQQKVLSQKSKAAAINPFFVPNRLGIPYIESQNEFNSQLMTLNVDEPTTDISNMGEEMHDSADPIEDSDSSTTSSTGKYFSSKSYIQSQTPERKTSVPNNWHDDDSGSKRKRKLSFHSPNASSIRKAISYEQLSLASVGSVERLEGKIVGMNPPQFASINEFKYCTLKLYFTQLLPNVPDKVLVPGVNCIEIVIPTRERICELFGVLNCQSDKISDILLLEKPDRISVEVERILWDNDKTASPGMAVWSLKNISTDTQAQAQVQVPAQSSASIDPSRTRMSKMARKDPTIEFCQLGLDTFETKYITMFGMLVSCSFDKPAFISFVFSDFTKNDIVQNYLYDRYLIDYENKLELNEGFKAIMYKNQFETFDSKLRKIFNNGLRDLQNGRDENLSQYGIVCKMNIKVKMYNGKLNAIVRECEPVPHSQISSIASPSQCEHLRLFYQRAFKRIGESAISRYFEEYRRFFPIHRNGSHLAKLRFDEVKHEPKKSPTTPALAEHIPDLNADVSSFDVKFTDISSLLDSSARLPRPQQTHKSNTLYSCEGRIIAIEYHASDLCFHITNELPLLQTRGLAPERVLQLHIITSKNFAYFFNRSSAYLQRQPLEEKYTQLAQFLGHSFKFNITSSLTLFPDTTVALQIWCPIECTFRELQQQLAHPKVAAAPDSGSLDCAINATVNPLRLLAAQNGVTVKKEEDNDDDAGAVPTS
Nature of the series: EMSA.

Series [2] deals with T2, Cy5-Sub1 (Sub1-Cys) (Saccharomyces cerevisiae, UniProt P54000 1-292+=C, internal_change).
T2 sequence: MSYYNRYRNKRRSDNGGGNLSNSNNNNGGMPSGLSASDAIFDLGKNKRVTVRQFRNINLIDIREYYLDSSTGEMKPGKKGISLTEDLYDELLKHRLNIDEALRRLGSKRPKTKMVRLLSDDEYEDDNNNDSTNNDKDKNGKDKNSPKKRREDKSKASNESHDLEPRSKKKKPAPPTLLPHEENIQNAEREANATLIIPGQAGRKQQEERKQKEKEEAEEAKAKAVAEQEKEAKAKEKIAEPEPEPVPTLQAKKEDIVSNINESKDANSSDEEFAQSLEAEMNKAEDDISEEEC
Nature of the series: stopped-flow FRET dissociation.

The target of series [3] is T1, Cdc13. Description: EMSA. This is another data set of the same source. On the technique in general: Mobility shift assays separate free from complexed probe on a gel.
The target of series [4] is T2, Cy5-Sub1 (Sub1-Cys). Description: filter binding.
The target in series [5] is T3, Sub1 (Saccharomyces cerevisiae, UniProt P54000 1-292).
T3 sequence: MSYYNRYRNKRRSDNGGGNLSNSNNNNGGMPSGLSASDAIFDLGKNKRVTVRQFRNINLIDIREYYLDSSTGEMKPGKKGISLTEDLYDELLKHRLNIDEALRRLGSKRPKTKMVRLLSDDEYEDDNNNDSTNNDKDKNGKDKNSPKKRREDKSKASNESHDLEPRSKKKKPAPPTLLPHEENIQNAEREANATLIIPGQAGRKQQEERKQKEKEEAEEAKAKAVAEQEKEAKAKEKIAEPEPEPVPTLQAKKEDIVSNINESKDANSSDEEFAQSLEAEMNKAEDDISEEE
Nature of the series: filter binding.

Series [6] concerns the target T4, S. cerevisiae Pif1 helicase (S. cerevisiae, UniProt P07271 46-859).
T4 sequence (looked up): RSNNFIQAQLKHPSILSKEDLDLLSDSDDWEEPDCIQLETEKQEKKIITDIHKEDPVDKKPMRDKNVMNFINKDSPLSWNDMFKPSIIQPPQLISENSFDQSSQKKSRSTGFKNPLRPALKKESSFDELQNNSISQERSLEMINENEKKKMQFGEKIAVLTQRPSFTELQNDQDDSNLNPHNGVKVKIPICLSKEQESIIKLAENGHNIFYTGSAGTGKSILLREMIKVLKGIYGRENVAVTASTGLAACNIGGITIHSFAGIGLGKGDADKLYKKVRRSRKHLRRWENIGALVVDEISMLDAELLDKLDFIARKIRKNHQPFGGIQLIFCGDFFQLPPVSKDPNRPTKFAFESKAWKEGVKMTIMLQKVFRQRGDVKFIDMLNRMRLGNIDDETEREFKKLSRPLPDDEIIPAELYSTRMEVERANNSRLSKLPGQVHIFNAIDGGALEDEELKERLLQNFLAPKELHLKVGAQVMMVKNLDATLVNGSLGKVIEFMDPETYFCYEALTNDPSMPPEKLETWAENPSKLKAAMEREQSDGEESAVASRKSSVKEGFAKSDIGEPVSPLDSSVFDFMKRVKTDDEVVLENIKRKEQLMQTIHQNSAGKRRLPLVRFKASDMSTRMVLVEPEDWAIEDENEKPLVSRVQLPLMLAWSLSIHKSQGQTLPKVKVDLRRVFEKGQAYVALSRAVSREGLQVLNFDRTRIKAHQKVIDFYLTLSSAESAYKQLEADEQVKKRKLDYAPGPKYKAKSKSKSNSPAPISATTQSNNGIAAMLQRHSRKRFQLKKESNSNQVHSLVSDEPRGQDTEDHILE
Description: fluorescence polarisation.

The target in series [7] is T1, Cdc13. Description: EMSA. This is another data set of the same source.
The target in series [8] is T1, Cdc13. Nature of the series: EMSA. This is another data set of the same source.

In the case of CGCTGATGTCGC (ssDNA) [12 nt Mixed seq], in series [1], the “apparent K (half saturation)” value was determined as 124 ± 8.8 nM.
With TTTTTTTTTTTTTTGAGGGTGGGTAGGGTGGGT (structured_DNA) [Cy3-G4 DNA], the binding result in series [2] is given as “binds”.
Take GTGTGGGTGTG (ssDNA) [Tel11 telomere seq]: the “apparent K (half saturation)” value in series [3] came out at 15.3 ± 0.9 nM.
For the molecule TTTTTTTTTTTTTTTGAGGGTGGGTAGGGTGGGTAA (structured_DNA) [G4DNA], the Kd in series [4] was 2.9 ± 1.3 nM; in series [5] it was 0.86 ± 0.18 nM.

B1: Cy5-labeled Sub1 (Sub1-Cys variant labeled with Cy5-maleimide) (natural protein, yeast (S. cerevisiae), UniProt P54000 1-292, looked up)
chain: T2 sequence
modifications: Cy5 (maleimide) on the cysteine added at the C-terminal end; one molecule of Cy5 dye per protein
On to B1, for which the Kd in series [6] worked out at 53 nM.
For the molecule GTGTGGCTCTG (ssDNA) [Tel11 (G7C/G9C)], the “apparent K (half saturation)” value in series [7] worked out at 96.7 ± 3 nM.
In the case of CTGTGGGTGTG (ssDNA) [Tel11 (G1C)], the “apparent K (half saturation)” value in series [8] was 150 ± 14.7 nM.

Broadly, the Kd is the equilibrium constant for the complex coming apart. A lower Kd goes with higher affinity.
